The record followed here is patent US12508311B2, “Fusion protein, and preparation method and use thereof” (SUN YAT-SEN UNIVERSITY, priority 2021, dated 2025).

Assay [1] concerns HCT116 (KRas G13D). As to the kind of experiment: Cell clone formation experiment, HCT116. The following applies: 10 and 20 μg/mL.
For assay [2], the target named is T1, wild-type KRas protein in HT29 (KRas wt) cells (Homo sapiens, UniProt P01116).
T1 construct: host or cells: HT29
As to the kind of experiment: Western blot of KRas degradation in HT29 cells. The conditions noted are these: for degradation of KRas protein, concentration-dependency (western blot): 0-20 μg/ml. The format is cell-based. How it is done:
• (1) Source and culture of cells: human colorectal cancer cells HT29 (KRas wt) and human colorectal cancer cells HCT116 (KRas G13D) came from American Type Culture Collection (ATCC) (item number: HTB-38, CCL-247). HT29 and HCT116 cells were all cultured in the 1640 culture medium added with 10% fetal bovine serum (FBS), under 5% CO2 at 37° C. • (2) The colorectal cancer cells HCT116 and HT29 were respectively spread in six-well plates, 500,000 cells per well. […] 2,000 μL of DMEM complete culture solution was added into each well and mixed evenly, and the cells were cultured at 37° C. for 24 hours. • (3) The cells were cleaned with PBS twice, and 0.5 mL of 0.25% pancreatin was added into each well to digest the cells and make the cells fall off from the culture dish wall. Then, the digestion was stopped with 1 mL of complete culture solution per well, the cell suspension was collected into a 1.5 mL EP tube, and centrifuged at the room temperature and 300 g for 3 minutes to collect the cells. The cells were resuspended with 1 mL of PBS, and repeatedly centrifuged for one time. • (4) The supernatant was removed, and 100 μL of lysate was added in each group (item number: P0013G; purchased from Beyotime Biotechnology Company). The cells were lysed on ice, vortically vibrated every 5 minutes, and centrifuged at 4° C. and 12,000 pm for 30 minutes after being lysed for 30 minutes, and the supernatant was collected into a new 1.5 mL EP tube. • (5) The protein concentration was measured by the BCA method, and 30 μg of protein was taken from each group for SDS denaturation gel electrophoresis, transferred and blocked with 5% skim milk for 1 hour. Then, KRas (source: Proteintech; item number: 12063-1-AP) and β-tublin (source: Proteintech; item number: 10094-1-AP) primary antibodies were added by a ratio of 1:2,000, and shaken overnight at 4° C. to remove the antibodies. The membrane was washed with TBST for three times, 10 minutes each time. The rabbit secondary antibody labeled with corresponding HRP (source: TransGen Company; item number: HS101-01) was added for dilution with the ratio of 1:3,000 and incubated in shaking at the room temperature for 1 hour, and the membrane was cleaned with TBST for three times, 10 minutes each time. The antibody was luminously developed in the dark room of the ELC luminescent kit. Concentrations of all the primary antibodies were 1:2,000 (1 […] diluted in 2,000 μL of primary antibody diluent).
The protein concentrations were measured by BCA, and 30 μg of protein was taken respectively and stored in a refrigerator at −20° C. for later use. • (3) Western blot experiment was carried out on collected protein samples.
In general terms: Immunoblotting shows a protein as a band on a membrane.

Assay [3] deals with signal pathway KRas/Raf/ERK/c-myc in KRas wild-type cells HT29. As to the kind of experiment: Western blot of EGFR downstream signal pathway, HT29. The format is cell-based, human. The following applies: 10 and 20 μg/mL, 24 hours, compared with control TKDm. How it is done:
• (1) The colorectal cancer cells HCT116 (KRas G13D) and HT29 (KRas wt) were respectively spread in six-well plates, 500,000 cells per well. […] Then, the digestion was stopped with 1 mL of complete culture solution per well, the cell suspension was collected into a 1.5 mL EP tube, and centrifuged at the room temperature and 300 g for 3 minutes to collect cells. The cells were resuspended with 1 mL of PBS, and repeatedly centrifuged once. • (3) The supernatant was removed, 100 μL of lysate was added in each group (item number: P0013G; purchased from Beyotime Biotechnology Company). The cells were lysed on ice, vortically vibrated every 5 minutes, and centrifuged at 4° C. and 12,000 rpm for 30 minutes after being lysed for 30 minutes, and the supernatant was collected in a new 1.5 mL EP tube. • (4) The protein concentration was measured by the BCA method, and 20 μg of protein was taken from each group for SDS denaturation gel electrophoresis, transferred and blocked with 5% skim milk for 1 hour.

Assay [4] relates to HCT116 (KRas G13D). As to the kind of experiment: CCK-8 cell proliferation experiment, HCT116. The conditions noted are these: 10 and 20 μg/mL, 24 hours.
Excerpt: CCK-8 was a highly sensitive and non-radioactive colorimetric method for determining the number of living cells in the cell proliferation or toxicity test.

B1: TKD: fusion protein: tumour-cell-penetrating peptide BR2, anti-KRas nanobody VHH and lysosome recognition peptide CTM; SEQ ID NO.4 (protein)
chain: RAGLQFPVGRLLRRLLRDVQLQESGGGLVQAGGSLRLSCVASGRTFSTYPTGWFRQAPGKEREFVARINLSGGITNYADSVKGRFTISRDNAKNTVYLQMNSLKPEDTAVYYCGGGSTTWAGGIPTNFDYWGQGTQVTVSSGRKFERQKILDQRFFE
With B1, in the assay on HCT116 (KRas G13D) [1], the “inhibition of clone growth” value is “could significantly inhibit the growth”. Besides, the “degradation of KRas, influence of administration time” value in assay [2] (10 and 20 μg/mL, 1, 2, 6, 12, 24 hours, cell line not restated (FIG. 12)) was “could rapidly degrade KRas, and the degradation was time-dependent within a certain range”. Further, the “degradation of KRas protein, concentration-dependency (western blot)” value in assay [2] (HT29, 24 hours) was “could cause degradation of expression levels of the wild-type and mutant-type KRas proteins in the colorectal cancer cells, and the degradation degree was increased with the increase of the concentration”. For the same molecule, the “degradation effect on KRas at 10 ug/mL and 20 ug/mL” value in assay [2] (HT29, FIG. 11, 24 hours) is on record as “the degradation effect on KRas was obvious”. For the same molecule, the “inhibition of activation of EGFR downstream signal pathway KRas/Raf/ERK/c-myc (western blot)” value in assay [3] is “could significantly inhibit the activation of the EGFR downstream signal pathway KRas/Raf/ERK/c-myc”. Further, in the assay on HCT116 (KRas G13D) [4], the “inhibition of cell growth (CCK-8)” value was “could significantly inhibit growth”.

B2: TKDm: control molecule of TKD with mutated CTM fragment (CTMmt) which could not be recognized by a lysosome; SEQ ID NO.5 (protein)
chain: RAGLQFPVGRLLRRLLRDVQLQESGGGLVQAGGSLRLSCVASGRTFSTYPTGWFRQAPGKEREFVARINLSGGITNYADSVKGRFTISRDNAKNTVYLQMNSLKPEDTAVYYCGGGSTTWAGGIPTNFDYWGQGTQVTVSSGRKFERAKILDARFFE
With B2, the “degradation of KRas protein, concentration-dependency (western blot)” value in assay [2] (HT29, 24 hours) was “could not play a similar role”. Further, the “inhibition of cell growth (CCK-8)” value in the assay on HCT116 (KRas G13D) [4] is “could not achieve the same effect”.
